Test results published in publication PMC6414729.

Experiments:
[1] = substrate: CB-PB phycobilisome (truncated phycobilisome of the CB mutant of Synechocystis PCC 6803) (Synechocystis PCC 6803) (UniProt Q01951)
[2] = substrate: CB-PB phycobilisome (truncated phycobilisome of the CB mutant of Synechocystis PCC 6803) (Synechocystis PCC 6803) (UniProt Q01951); remark: listed apart in the source
[3] = substrate: CB-PB phycobilisome (truncated phycobilisome of the CB mutant of Synechocystis PCC 6803) (Synechocystis PCC 6803) (UniProt Q01951); assay: bulk fluorescence quenching (emission spectrum and lifetime decay); OCP:CB-PB 40:1 in 0.8 M phosphate buffer, illuminated with white light 10 min at 23 °C; bulk sample ~25 nM
[4] = compound: CB-PB phycobilisome (truncated phycobilisome of the CB mutant of Synechocystis PCC 6803) (Synechocystis PCC 6803) (UniProt Q01951); assay: ABEL trap single-molecule fluorescence spectroscopy; pre-activated and pre-bound OCP + CB-PB (40:1) diluted to ~10 pM in 0.8 M phosphate buffer pH 7.5 with 1 M sucrose; single complexes in free solution; followed up to 5 h after dilution

brightness of quenched state Q1 relative to unquenched CB-PB [1]: 11%
brightness of quenched state Q2 relative to unquenched CB-PB [1]: 6%
bulk fluorescence emission of fully quenched OCP + CB-PB (40:1) relative to unquenched CB-PB [2]: 9%
bulk fluorescence lifetime, shorter component of the quenched OCP + CB-PB complex (unquenched 1.6 ns) [2]: 0.1 ns
percent of complexes quenched [3]: > 95%
stoichiometry N [4]: 2
B1: Orange Carotenoid Protein, photoactivated red form (OCP^R) (natural protein)
chain: MPFTIDSARGIFPNTLAADVVPATIARFSQLNAEDQLALIWFAYLEMGKTLTIAAPGAASMQLAENALKEIQAMGPLQQTQAMCDLANRADTPLCRTYASWSPNIKLGFWYRLGELMEQGFVAPIPAGYQLSANANAVLATIQGLESGQQITVLRNAVVDMGFTAGKDGKRIAEPVVPPQDTASRTKVSIEGVTNATVLNYMDNLNANDFDTLIELFTSDGALQPPFQRPIVGKENVLRFFREECQNLKLIPERGVTEPAEDGFTQIKVTGKVQTPWFGGNVGMNIAWRFLLNPEGKIFFVAIDLLASPKELLNFA
